Laboratory results reported in patent publication US20240352105A1, “COMPOSITIONS AND METHODS FOR NEUTRALIZING ANTIGENS” (PACAGEN, INC, priority 2023, published 2024).
“And” between values parts separate entries of the source, which are not always exact repeats. Equal values may be shown once.

What was measured:
[1] = target: Can f2-sumo-His (dog (Canis familiaris)) (UniProt O18874); assay: serum ELISA, 1:2K, Alpaca 2 block
[2] = target: recombinant His-tagged Can f2 (dog (Canis familiaris)) (UniProt O18874); assay: serum ELISA, 1:2K, Alpaca 2 block
[3] = target: recombinant His-tagged Can f1 (dog (Canis familiaris)) (UniProt O18873); assay: serum ELISA, 1:8K, Alpaca 2 block
[4] = target: Can f2-sumo-His (dog (Canis familiaris)) (UniProt O18874); assay: serum ELISA, 1:8K, Alpaca 2 block
[5] = target: T1, recombinant His-tagged Der p2 (dust mite, UniProt P49278 18-146); assay: serum ELISA, 1:8K, Alpaca 2 block
T1 construct: also called Der p2-His; Der p2-HIS; not shown: His tag
T1 sequence (looked up): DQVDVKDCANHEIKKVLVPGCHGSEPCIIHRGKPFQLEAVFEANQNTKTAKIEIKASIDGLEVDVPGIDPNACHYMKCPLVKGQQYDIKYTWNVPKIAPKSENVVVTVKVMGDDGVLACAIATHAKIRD

[6] = target: recombinant His-tagged Can f2 (dog (Canis familiaris)) (UniProt O18874); assay: serum ELISA, 1:8K, Alpaca 2 block
[7] = target: recombinant His-tagged Can f1 (dog (Canis familiaris)) (UniProt O18873); assay: serum ELISA, 1:4k, Alpaca 2 block
[8] = target: Can f2-sumo-His (dog (Canis familiaris)) (UniProt O18874); assay: serum ELISA, 1:4k, Alpaca 2 block
[9] = target: T1, recombinant His-tagged Der p2; assay: serum ELISA, 1:4k, Alpaca 2 block
[10] = target: recombinant His-tagged Can f2 (dog (Canis familiaris)) (UniProt O18874); assay: serum ELISA, 1:4k, Alpaca 2 block
[11] = target: recombinant His-tagged Can f1 (dog (Canis familiaris)) (UniProt O18873); assay: serum ELISA, 1:1K, Alpaca 2 block
[12] = target: Can f2-sumo-His (dog (Canis familiaris)) (UniProt O18874); assay: serum ELISA, 1:1K, Alpaca 2 block
[13] = target: T1, recombinant His-tagged Der p2; assay: serum ELISA, 1:1K, Alpaca 2 block
[14] = target: recombinant His-tagged Can f2 (dog (Canis familiaris)) (UniProt O18874); assay: serum ELISA, 1:1K, Alpaca 2 block
[15] = target: recombinant His-tagged Can f1 (dog (Canis familiaris)) (UniProt O18873); assay: serum ELISA, 1:4k, Alpaca 1 block
[16] = target: Can f2-sumo-His (dog (Canis familiaris)) (UniProt O18874); assay: serum ELISA, 1:4k, Alpaca 1 block
[17] = target: T1, recombinant His-tagged Der p2; assay: serum ELISA, 1:4k, Alpaca 1 block
[18] = target: recombinant His-tagged Can f2 (dog (Canis familiaris)) (UniProt O18874); assay: serum ELISA, 1:4k, Alpaca 1 block

recombinant His-tagged Can f1 (dog (Canis familiaris)), sequence (O18873 19-174 limits assumed): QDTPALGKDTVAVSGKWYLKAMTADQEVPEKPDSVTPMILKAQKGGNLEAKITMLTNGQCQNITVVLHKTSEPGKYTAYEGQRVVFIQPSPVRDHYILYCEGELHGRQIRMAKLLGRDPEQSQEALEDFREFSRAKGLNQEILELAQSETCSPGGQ
Can f2-sumo-His (dog (Canis familiaris)), sequence (O18874 19-180): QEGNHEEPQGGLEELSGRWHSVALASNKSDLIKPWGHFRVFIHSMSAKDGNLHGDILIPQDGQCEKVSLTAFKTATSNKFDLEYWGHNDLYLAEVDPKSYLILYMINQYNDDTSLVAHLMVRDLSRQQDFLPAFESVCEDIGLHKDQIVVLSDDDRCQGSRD
recombinant His-tagged Can f2 (dog (Canis familiaris)), sequence (O18874 19-180 limits assumed): as the sequence (O18874 19-180) above

OD at 450 nm [1]: 0.119 OD and 0.113 OD
OD at 450 nm [2]: 0.143 OD and 0.133 OD
OD at 450 nm [3]: 0.108 OD and 0.111 OD
OD at 450 nm [4]: 0.083 OD and 0.079 OD
OD at 450 nm [5]: 0.101 OD and 0.103 OD
OD at 450 nm [6]: 0.099 OD and 0.084 OD
OD at 450 nm [7]: 0.122 OD
OD at 450 nm [8]: 0.09 OD and 0.081 OD
OD at 450 nm [9]: 0.113 OD
OD at 450 nm [10]: 0.108 OD and 0.101 OD
OD at 450 nm [11]: 0.228 OD and 0.218 OD
OD at 450 nm [12]: 0.186 OD and 0.181 OD
OD at 450 nm [13]: 0.201 OD and 0.19 OD
OD at 450 nm [14]: 0.227 OD and 0.241 OD
OD at 450 nm [15]: 0.137 OD and 0.147 OD
OD at 450 nm [16]: 0.071 OD and 0.072 OD
OD at 450 nm [17]: 0.119 OD and 0.116 OD
OD at 450 nm [18]: 0.077 OD and 0.075 OD
Substance: Negative serum taken from naïve alpacas
